The data set is described as follows: anti-Myc western blot of cell extracts and culture media. Particulars: glycan lost; control: wild-type C-terminally tagged full-length PEBP4.

B1: human PEBP4 (hPEBP4): T171A (protein)
parent chain: MGWTMRLVTAALLLGLMMVVTGDEDENSPCAHEALLDEDTLFCQGLEVFYPELGNIGCKVVPDCNNYRQKITSWMEPIVKFPGAVDGATYILVMVDPDAPSRAEPRQRFWRHWLVTDIKGADLKKGKIQGQELSAYQAPSPPAHSGFHRYQFFVYLQEGKVISLLPKENKTRGSWKMDRFLNRFHLGEPEASTQFMTQNYQDSPTLQAPRERASEPKHKNQAEIAAC
As to B1, the expression_or_secretion result is “no change”.

These data come from article PMC5336313.
